Where a chain is given by its changes, count along the chain named.
T1: TOPOVIBLΔC25 (monomer) (Mus musculus, UniProt J3QMY9 1-554)
T1 sequence: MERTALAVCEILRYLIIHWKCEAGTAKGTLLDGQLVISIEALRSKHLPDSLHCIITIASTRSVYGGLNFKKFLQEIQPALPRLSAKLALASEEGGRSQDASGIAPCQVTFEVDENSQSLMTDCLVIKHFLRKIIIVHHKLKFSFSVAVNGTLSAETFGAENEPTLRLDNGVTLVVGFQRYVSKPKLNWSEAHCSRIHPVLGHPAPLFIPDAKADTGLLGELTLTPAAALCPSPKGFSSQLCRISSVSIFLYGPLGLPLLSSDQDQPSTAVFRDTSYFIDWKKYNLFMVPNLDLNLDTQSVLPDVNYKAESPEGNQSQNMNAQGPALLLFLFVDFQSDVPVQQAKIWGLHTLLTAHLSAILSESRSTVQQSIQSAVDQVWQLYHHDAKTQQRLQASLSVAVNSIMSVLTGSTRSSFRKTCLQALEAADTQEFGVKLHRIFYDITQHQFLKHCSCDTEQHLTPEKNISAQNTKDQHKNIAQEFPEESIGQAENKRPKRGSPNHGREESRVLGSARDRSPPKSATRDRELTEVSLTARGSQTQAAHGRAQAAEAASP

T2: TOPOVIBLΔC25 K281E K282E (Mus musculus, UniProt J3QMY9 1-554, K281E;K282E)
T2 sequence: T1 sequence with K281E, K282E

B1: 2B70 dsDNA (dsDNA)
DNA 1: AGACAAGAGATGGCCCTTTCCAGAAGCTACCACCATCATGTCTTCTACCACTGTGCACTAATATAGTGTG
DNA 2: CACACTATATTAGTGCACAGTGGTAGAAGACATGATGGTGGTAGCTTCTGGAAAGGGCCATCTCTTGTCT
B2: 2B60 dsDNA (dsDNA)
DNA 1: AGAGATGGCCCTTTCCAGAAGCTACCACCATCATGTCTTCTACCACTGTGCACTAATATA
DNA 2: TATATTAGTGCACAGTGGTAGAAGACATGATGGTGGTAGCTTCTGGAAAGGGCCATCTCT
B3: 2B39 dsDNA (dsDNA)
DNA 1: CTTTCCAGAAGCTACCACCATCATGTCTTCTACCACTGT
DNA 2: ACAGTGGTAGAAGACATGATGGTGGTAGCTTCTGGAAAG
B4: ss2B39 (unlabeled competitor) (ssDNA)
DNA: B3 DNA 2
B5: ss2B39 (labeled) (ssDNA)
DNA: B3 DNA 1
B6: 2B20 dsDNA (dsDNA)
DNA 1: GCTACCACCATCATGTCTTC
DNA 2: GAAGACATGATGGTGGTAGC
B7: U40 dsDNA (dsDNA)
DNA 1: CTATTGAAAAAGGAAGAGTATGAGTATTCAACATTTCCGC
DNA 2: GCGGAAATGTTGAATACTCATACTCTTCCTTTTTCAATAG

What was measured:
[1] = molecular target: HSP70 (Spodoptera frugiperda (endogenous in Sf9)); experiment: native MS
TOPOVIBLΔC25 (monomer) [2] = molecular target: T1, TOPOVIBLΔC25 (monomer); experiment: fluorescence anisotropy
TOPOVIBLΔC25 K281E K282E = molecular target: T2, TOPOVIBLΔC25 K281E K282E; experiment: fluorescence anisotropy
TOPOVIBLΔC25 (monomer) [3] = molecular target: T1, TOPOVIBLΔC25 (monomer); experiment: competition
TOPOVIBLΔC25 (monomer) [4] = molecular target: T1, TOPOVIBLΔC25 (monomer); experiment: fluorescence anisotropy; remark: listed apart in the source

Row | Molecule | Kd (TOPOVIBLΔC25 (monomer) [2]) | other results
1 | HSP70 (natural protein) |  | stoichiometry N [1]: 2
2 | B1 | 1500 nM | 
3 | B2 | 900 nM | 
4 | B3 | 650 nM | binding signal (TOPOVIBLΔC25 K281E K282E): 3 mutant/wild type Kd ratio
5 | B4 |  | binding result (TOPOVIBLΔC25 (monomer) [3]): binds
6 | B5 | 310 nM | 
7 | B6 | 1610 nM | 
8 | B7 |  | binding result (TOPOVIBLΔC25 (monomer) [4]): binds
